From patent publication US8071348B2, “Protein tyrosine phosphatase substrate-trapping double mutant and uses thereof” (Albert Einstein College of Medicine of Yeshiva University, priority 2002, dated 2011)

What was measured:
[1] = target: T1, Ac-Asp-Ala-Asp-Glu-F2Pmp-Leu-NH2 (Homo sapiens, UniProt P18031, C215S); experiment: Isothermal titration calorimetry, binding of PTP1B and mutants to F2Pmp peptide; details: lower temperature (15° C.)
T1 construct: The catalytic domain of PTP1B (residues 1 to 321) was used for in vitro study; made in house; host or cells: E. coli (pT7-7 plasmids)
T1 sequence (P18031 1-321 C215S): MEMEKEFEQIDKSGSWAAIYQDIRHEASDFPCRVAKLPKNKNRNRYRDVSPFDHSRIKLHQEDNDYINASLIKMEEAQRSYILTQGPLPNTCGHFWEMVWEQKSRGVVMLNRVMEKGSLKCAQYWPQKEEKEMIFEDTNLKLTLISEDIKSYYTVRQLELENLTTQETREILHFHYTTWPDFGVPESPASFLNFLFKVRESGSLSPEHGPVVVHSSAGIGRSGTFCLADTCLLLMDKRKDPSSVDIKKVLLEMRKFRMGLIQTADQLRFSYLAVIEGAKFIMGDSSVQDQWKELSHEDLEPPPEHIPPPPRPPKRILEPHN
Procedure: FIG. 3 portrays calorimetric isothermal titration for the reaction of peptide Ac-Asp-Ala-Asp-Glu-F2Pmp-Leu-NH2 with PTP1B/D181A/Q262A. The upper graph depicts raw data for thirty 8-μl injections of the peptide (0.5 mM stock) into the isothermal cell containing 32 μM PTP1B/D181A/Q262A, at 4-min intervals and 25° C. Both the protein and the peptide were in 50 mM 3,3-dimethylglutarate buffer (I=0.15 M, pH 7.0) containing 1 mM DTT. The lower graph depicts an integration curve showing experimental points that were obtained by integration of the above peaks as plotted against the molar ratio of the peptide to PTP1B/D181A/Q262A within the reaction cell. The solid line corresponds to the best fit to the data according to the nonlinear, least-squares regression algorithm, ORIGIN (29).
All isothermal titration calorimetry experiments were performed using an MCS Isothermal Titration Calorimetry System from Microcal Inc. (Northampton, Mass.). […] The ionic strength of the buffer was adjusted to 0.15 M by addition of NaCl. Protein concentration in the calorimeter cell was 27-85 μM, while the ligand concentration in the syringe was 0.37-1 mM.
The PTP1B samples used in the isothermal titration calorimetry experiments were dialyzed completely against buffer. High-concentration stock solutions were prepared for ligands with distilled water, and adjusted to pH 7.0. Stock was diluted at least 26-fold with 50 mM 3,3-dimethylglutarate buffer before titration. Protein dilution during titration was determined by titration of buffer into the protein solution. […] The heat of ligand dilution was corrected by subtracting the average heat of injection after saturation.
The binding data were analyzed using ORIGIN software (29). Binding constant, K, and enthalpy change, ΔH, were used to calculate free energy change, ΔG, and entropy change, ΔS, according to equation [1]: −RTLnK=ΔG=ΔH−TΔS [1] where R is the gas constant and T is the absolute temperature.

[2] = test system: EGFR^988-998 peptide, DADEpYLIPQQG; experiment: Kinetic constants for PTP1B-catalyzed hydrolysis of pTyr-containing EGFR988-998 peptide; type: biochemical; details: EGFR988-998 peptide as substrate
How it was run: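 PTP1B catalytic domain (residues 1–321), wild-type or mutant, expressed in E. coli. Continuous assay at 25° C., pH 7.0, in 50 mM 3,3-dimethylglutarate with 1 mM EDTA (ionic strength 0.15 M). Dephosphorylation followed by absorbance increase at 282 nm or fluorescence at 305 nm to obtain kcat and Km.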

[3] = test system: Ac-Asp-Ala-Asp-Glu-F2Pmp-Leu-NH2; details: cited from earlier work

B1: C215S: existing PTP1B substrate-trapping mutant, active site Cys215 replaced by Ser (protein, UniProt P18031 1-435, looked up, variant C215S)
Tyrosine-protein phosphatase …: MEMEKEFEQIDKSGSWAAIYQDIRHEASDFPCRVAKLPKNKNRNRYRDVSPFDHSRIKLHQEDNDYINASLIKMEEAQRSYILTQGPLPNTCGHFWEMVWEQKSRGVVMLNRVMEKGSLKCAQYWPQKEEKEMIFEDTNLKLTLISEDIKSYYTVRQLELENLTTQETREILHFHYTTWPDFGVPESPASFLNFLFKVRESGSLSPEHGPVVVHSSAGIGRSGTFCLADTCLLLMDKRKDPSSVDIKKVLLEMRKFRMGLIQTADQLRFSYLAVIEGAKFIMGDSSVQDQWKELSHEDLEPPPEHIPPPPRPPKRILEPHNGKCREFFPNHQWVKEETQEDKDCPIKEEKGSPLNAAPYGIESMSQDTEVRSRVVGGSLRGAQAASPAKGEPSLPEKDEDHALSYWKPFLVNMCVATVLTAGAYLCYRFLFNSNT
[1]
  shape of ITC titration curve: displayed two peaks
[2]
  phosphatase activity: no measurable activities
[3]; F2Pmp peptide, previously determined (24)
  affinity compared with wild-type enzyme: same affinity as the wild-type enzyme
[3]; ITC, 25° C. and pH 7.0, data from (24)
  Kd: 190 ± 30 nM
